The record followed here is publication doi:10.1101/2024.10.16.618688.

The target in assay [1] is NRX1β ECD (aa 81 - 311) labeled with Alexa Fluorophore 488 (mouse) (UniProt P0DI97). Nature of the assay: fluorescence polarisation.
Assay [2] deals with full-length neuroligin 2 (NL2), wild type (mouse) (UniProt Q69ZK9). Nature of the assay: cryo-EM structure.

Several values for one entry are separate records, joined by “and”; a condition that tells them apart may be missing. Equal values may be shown once.

The substance “full-length neuroligin 2 (NL2), wild type (from UniProt Q69ZK9 15-836) (natural protein)” yielded a Kd in assay [1] of 6 µM. The substance further had a stoichiometry N in assay [2] of 2.
“NL2 H279Y G282K mutant (from UniProt Q69ZK9 170-836) (natural protein)” gave a Kd in assay [1] of 0.3 µM.
Take “full-length neurexin 1β (NRX1β), wild type (from UniProt P0DI97 47-468) (natural protein)”: the stoichiometry N (NRX1β per NL2 dimer) in assay [2] is 2 and 1.
